The values that follow come from patent publication US20230110085A1.

Bounds are passed on as bounds.

Experiment [1] concerns the target purified human IgM (#16-16-090713-M, Athens Research & Technology) (human). Description: Western blot of DTT-reduced purified human IgM titrated 1250 to 4.8 ng/well.
Experiment [2] shares this target. Description: cell-based or functional assay.
Experiment [3] addresses human IgG (IVIg, Gamunex) (human). Description: cell-based or functional assay.

Substance “PE-conjugated donkey anti-human IgM (#IGM-PEC1, One Lambda) (antibody)” showed a detection limit (lowest IgM amount with visible band) in experiment [1] of 19 ng/well.

Consider “imlifidase (IdeS), immunoglobulin G-degrading cysteine protease of S. pyogenes (enzyme)”, for which, in experiment [2], the cleavage on SDS-PAGE is above 200 µg/mL and the digestion on SDS-PAGE gel was above 200 µg/mL. Besides, in experiment [3], the cleavage on SDS-PAGE (full cleavage) stood at 2 µg/mL and the cleavage on SDS-PAGE (to scIgG) was 0.2 µg/mL.
